We go through 2 molecules from US20030054411A1, “GPR motifs and uses thereof” (priority 2001, published 2003).

One test addresses T1, Giα2 (Homo sapiens, UniProt P04899).
T1 construct: made in house; host or cells: Sf9 insect cells
In words: GTPγS binding assay, Giα2. The settings on record: AGS proteins. The format is biochemical. Here is the method:
(§1) A and B, the carboxyl region of AGS3 (Pro^463-Ser^650) containing all four GPR repeats was generated as a His-tagged (A) or GST fusion (B) protein for protein interaction assays as described under Examples. All interactions were done in the presence of 10 μM GDP, and the input lanes represent one-tenth of the G-protein used in each interaction assay. A, Giα1 (75 nM) was incubated with 300 nM His-tagged AGS3-GPR in the absence and presence of increasing amounts of the GPR peptide, after which bound Giα was isolated on a nickel affinity matrix, and samples were processed for immunoblotting with Giα antisera. The blot in the upper panel of A was stripped and reprobed with AGS3 antisera to provide internal controls for protein loading. B, Giα2 (75 nM) was incubated with 300 nM AGS3-GPR or GST in the presence and absence of 100 μM GPR consensus peptide, GPR peptide Q15A, or GPR peptide R23F. The immunoblots presented in A and B are representative of three experiments. C and D, GTPγ^35S binding to G-proteins (100 nM) was measured in the absence and presence of peptides as described in the Examples. Data are expressed as the percent of specific binding (˜5 pmol) observed in the absence of peptide and represent the means±S.E. derived from three experiments. The concentration of peptides in D is 10 μM.
GTPγS Binding Assays—GTPγS binding assays were generally conducted as described (39). G-proteins (100 nM) were preincubated for 20 min at 24° C. in the presence and absence of GPR peptides. Binding assays (duplicate determinations) were initiated by addition of 0.5 μM GTPγS (4.0×10^4 dpm/pmol), and incubations (total volume=50 μl) were continued for 30 min at 24° C. Both preincubations and GTPγS binding assays were conducted in binding buffer containing 2 mM MgCl2. Reactions were terminated by rapid filtration through nitrocellulose filters with 4×4-ml washes of stop buffer (50 mM Tris-HCl, 5 mM MgCl2, 1 mM EDTA, pH 7.4, at 4° C.). Radioactivity bound to the filters was determined by liquid scintillation counting. Nonspecific binding was defined by 100 μM […].
Background: GTPγS resists hydrolysis and so accumulates on activated G proteins.

The test system of the next test is brain G-protein. In words: GTPγS binding assay, brain G-protein. The format is biochemical, bovine. The settings on record: AGS proteins. Here is the method: as §1, with “The immunoblots presented in A and B are representative of three experiments.” left out, “The concentration of peptides in D is 10 μM.” left out
GTPγS Binding Assays—GTPγS binding assays were generally conducted as described (39). […] Radioactivity bound to the filters was determined by liquid scintillation counting. […]

Test [1] relates to pheromone response pathway. In words: β-galactosidase reporter assays in yeast strains expressing different Gα subunits. The format is cell-based, Saccharomyces cerevisiae. The settings on record: Gpa1, Gsα, Giα2, Giα3, Gα16 backgrounds. From the text:
(A) Bioactivity of cDNA #37 and 53 in yeast strains expressing different Gα subunits. The Gpa1, Giα2Gpa1(1-41), Giα3Gpa1(1-41) and Gα16Gpa1(1-41) yeast strains expressed similar amounts of G-protein as determined by immunoblotting with Gpa1-specific antisera. Each series of experiments include data obtained in the absence of Gα to indicate the signal obtained when the action of Gβγ is not limited by reformation of heterotrimer. Data are presented as the mean±S.E.M of three experiments with duplicate determinations. (B) Interaction of AGS2 and AGS3 with G-proteins. AGS2 and the bioactive AGS3 peptide (74 amino acids) beginning at the first in frame methionine were generated as GST-fusion proteins in bacteria and purified using a glutathione affinity matrix. AGS2 and AGS3 GST fusion proteins were incubated with G-protein subunits (Gα=60-80 nM, Gβγ=40 nM, fusion protein=˜300 nM, total volume=250 ul) for 12 hrs at 4° C. GDP=10 uM. […] Giα2 was generated in Sf9 cells as an amino terminal his6-tagged protein and was detected on membrane transfers using anti-Xpress antisera (Invitrogen). Bovine brain Gβγ was detected on membrane transfers with Gβ antisera. […]
Generation and screening of cDNA libraries. […] The cDNAs conferring such a response were considered positive and were further evaluated by epistasis experiments in different yeast strains, nucleotide sequencing and RNA blot analysis. […]
Background: Reporter assays use an easily measured gene product as a stand-in for the process of interest.

T1 sequence (P04899 whole entry): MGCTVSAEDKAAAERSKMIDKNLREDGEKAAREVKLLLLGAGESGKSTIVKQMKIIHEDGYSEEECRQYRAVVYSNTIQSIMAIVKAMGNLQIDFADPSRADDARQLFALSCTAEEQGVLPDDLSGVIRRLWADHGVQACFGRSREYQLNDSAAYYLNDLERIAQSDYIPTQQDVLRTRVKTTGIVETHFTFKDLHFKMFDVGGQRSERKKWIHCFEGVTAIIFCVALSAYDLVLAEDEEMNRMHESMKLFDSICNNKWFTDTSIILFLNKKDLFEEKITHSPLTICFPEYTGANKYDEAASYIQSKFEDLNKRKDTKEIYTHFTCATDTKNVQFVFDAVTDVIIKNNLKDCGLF

“AGS2: Activator of G-protein Signalling 2, protein identical to mouse Tctex1, isolated from NG108-15 cDNA library”: in the test with Giα2, the “effect on GTPγ35S binding to Giα2” value is reported as “did not alter”. The “effect on GTPγ35S binding to heterotrimeric brain G-protein” value with brain G-protein is given as “did not alter”. The “activity in yeast strains expressing different Gα subunits” value in test [1] is reported as “active in each of the genetic backgrounds except Gpa1”.

B1: AGS3: Activator of G-protein Signalling 3; bioactive 74 amino acid fragment isolated in yeast screen, tested as GST fusion (protein)
chain: MLIKYQSSRIDDQRCPPPDVLPRGPTMPDEDFFSLIQRVQAKRMDEQRVDLAGSPDQEASGLPDPRQQCPPGAS
modifications: left off: a dimerising Fc or GST
As to B1, the “effect on GTPγ35S binding to Giα2” value with Giα2 is “did not alter”. The “effect on GTPγ35S binding to heterotrimeric brain G-protein” value in the test on brain G-protein is “did not alter”. For the same molecule, the “activity in yeast strains expressing different Gα subunits” value in test [1] is “only active in the Giα2 and Giα3 genetic backgrounds”.
